For data set [1], the target named is GBP1 Δ207-223, non-farnesylated (human) (UniProt P32455). Description: cross-linking; BS3 at 20-times molar excess, 20 µM protein, with 200 µM GDP, 300 µM AlCl3, 10 mM NaF (GDP•AlFx); 50 mM HEPES, 150 mM NaCl, 5 mM MgCl2; SDS-PAGE.
For data set [2], the target named is GBP1 M139E, non-farnesylated (human) (UniProt P32455). Description: SEC; analytical SEC (Superdex 200 5/150), 20 µM protein with 200 µM GDP, 300 µM AlCl3, 10 mM NaF (GDP•AlFx); 50 mM Tris-HCl pH 7.9, 150 mM NaCl, 5 mM MgCl2. For orientation: SEC sorts molecules by how far they enter the pores of the column.
For data set [3], the target named is GBP1 M139R, non-farnesylated (human) (UniProt P32455). Described as above.
Data set [4] concerns the molecule itself. Kind of data set: specific GDPase activity against protein concentration (HPLC), quadratic fit; apparent Kd of dimer formation; isolated LG domains, 1 mM GDP, 37 °C, 50 mM Tris-HCl pH 7.9, 150 mM NaCl, 5 mM MgCl2; dimer to monomers.
Data set [5] concerns the molecule itself. Kind of data set: SEC; analytical SEC (Superdex 200 5/150), 20 µM protein with 200 µM GDP, 300 µM AlCl3, 10 mM NaF (GDP•AlFx); 50 mM Tris-HCl pH 7.9, 150 mM NaCl, 5 mM MgCl2.
Data set [6] deals with T1, human guanylate-binding protein 1 (GBP1), wild-type, non-farnesylated (human), P32455.
T1 chain: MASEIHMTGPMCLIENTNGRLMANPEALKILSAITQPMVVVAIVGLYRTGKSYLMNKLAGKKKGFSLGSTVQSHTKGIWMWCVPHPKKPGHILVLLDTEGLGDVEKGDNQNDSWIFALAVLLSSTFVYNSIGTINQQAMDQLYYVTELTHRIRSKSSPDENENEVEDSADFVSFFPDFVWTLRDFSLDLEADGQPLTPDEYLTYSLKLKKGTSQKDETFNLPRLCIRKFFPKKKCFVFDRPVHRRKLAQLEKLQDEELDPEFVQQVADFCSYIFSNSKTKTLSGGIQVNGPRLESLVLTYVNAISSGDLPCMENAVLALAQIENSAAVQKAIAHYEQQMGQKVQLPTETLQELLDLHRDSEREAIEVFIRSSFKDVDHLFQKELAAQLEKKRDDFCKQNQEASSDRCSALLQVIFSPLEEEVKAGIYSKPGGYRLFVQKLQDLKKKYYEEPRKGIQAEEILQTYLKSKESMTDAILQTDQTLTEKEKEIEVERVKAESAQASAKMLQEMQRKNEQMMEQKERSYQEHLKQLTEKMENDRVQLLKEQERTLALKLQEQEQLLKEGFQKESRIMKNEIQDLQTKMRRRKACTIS
Kind of data set: cross-linking; BS3 at 20-times molar excess, 20 µM protein, with 200 µM GDP, 300 µM AlCl3, 10 mM NaF (GDP•AlFx); 50 mM HEPES, 150 mM NaCl, 5 mM MgCl2; SDS-PAGE. The following applies: remark: other sources report otherwise.

Data set [7] has as its target T1, human guanylate-binding protein 1 …. Kind of data set: specific GTPase activity against protein concentration (HPLC), quadratic fit; apparent Kd of dimer formation; non-farnesylated GBP1, 1 mM GTP, 37 °C, 50 mM Tris-HCl pH 7.9, 150 mM NaCl, 5 mM MgCl2; dimer to monomers. The settings on record: remark: other sources report otherwise.
Data set [8] deals with T2, human guanylate-binding protein 1 (GBP1), wild-type, farnesylated (human), P32455.
T2 chain: T1 chain
Description: cryo-EM structure; single particle analysis of polymeric disks; 5 µM farnesylated GBP1 with GDP•AlFx for 20-30 min, no membranes; ~37 Å. The settings on record: remark: other sources report otherwise.

Data set [9] concerns the molecule itself. Kind of data set: light scattering-based polymerization assay; 10 µM farnesylated GBP1, polymerization started with 1 mM GTP (for the pivot point mutants also with LPS added); 50 mM Tris-HCl pH 7.9, 150 mM NaCl, 5 mM MgCl2; absorbance at 350 nm over 40 min; dimers to polymers.

Where a chain is given by its changes, count along the chain named. In names and notes the source's numbering stands.

The term stoichiometry N denotes the number of molecules, sites or subunits per partner or assembly. In the case of “GBP1 Δ207-223, non-farnesylated (from UniProt P32455 1-592) (natural protein)”, in data set [1], the stoichiometry N was 2.

Regarding “GBP1 M139E, non-farnesylated (from UniProt P32455 1-592) (natural protein)”, in [2], the stoichiometry N amounted to 2.

Molecule “GBP1 M139R, non-farnesylated (from UniProt P32455 1-592) (natural protein)” came in with a stoichiometry N in [3] of 2.

B1: isolated LG domain of GBP1, wild-type (domain or fragment, human, UniProt P32455 1-317, looked up)
chain: MASEIHMTGPMCLIENTNGRLMANPEALKILSAITQPMVVVAIVGLYRTGKSYLMNKLAGKKKGFSLGSTVQSHTKGIWMWCVPHPKKPGHILVLLDTEGLGDVEKGDNQNDSWIFALAVLLSSTFVYNSIGTINQQAMDQLYYVTELTHRIRSKSSPDENENEVEDSADFVSFFPDFVWTLRDFSLDLEADGQPLTPDEYLTYSLKLKKGTSQKDETFNLPRLCIRKFFPKKKCFVFDRPVHRRKLAQLEKLQDEELDPEFVQQVADFCSYIFSNSKTKTLSGGIQVNGPRLESLVLTYVNAISSGDLPCMENAVL
notes: large GTPase (LG) domain of GBP1, human; stop codon in place of A318 (primer A318*); also called wild-type LG domain; WT; source: E. coli, pQE-80L, purified (Ni Sepharose HP, Superdex 200)
As for B1, the Kd in data set [4] came out at 110 µM. Also, the “stoichiometry N” value in [5] was found to be 2.

B2: human guanylate-binding protein 1 (GBP1), wild-type, non-farnesylated, P32455 1-592 (natural protein)
chain: T1 chain
In data set [6], B2 had a stoichiometry N of 2. The Kd in [7] came out at 1.9 µM.

B3: human guanylate-binding protein 1 (GBP1), wild-type, farnesylated, P32455 1-592 (natural protein)
chain: T1 chain
modifications: here or on the partner: farnesyl moiety at the C-terminal CaaX box motif; farnesyl moiety at the C-terminal CaaX box motif
B3 displayed a subunits (dimeric building blocks) in a planar polymeric disk in data set [8] of 30 subunits.

B4: GBP1 D199K, farnesylated (natural protein, human, UniProt P32455 1-592, looked up)
chain: T1 chain with D199K
modifications: farnesyl moiety at the C-terminal CaaX box motif
notes: GBP1, human, full-length construct with D199K in helix α4; also called pivot point mutant
Regarding B4, the binding result in data set [9] is recorded as “binds”.

B5: GBP1 D199A, farnesylated (natural protein, human, UniProt P32455 1-592, looked up)
chain: T1 chain with D199A
modifications: farnesyl moiety at the C-terminal CaaX box motif
notes: GBP1, human, full-length construct with D199A in helix α4; also called pivot point mutant
For the molecule B5, in data set [9], the binding result is “binds”.

The values above are taken from paper PMC10897159, “Structural insights into the activation mechanism of antimicrobial GBP1” (The EMBO Journal, 2024).
